From patent US20230265148A1
Where “and” joins values, the source holds several entries; their conditions need not be identical. Identical values can stand only once.

Target: human IL-2 receptor αβγ trimer on CHO-K1 cells (CHO-K1 hIL-2R αβγ 2D6) (human) (UniProt P01589)
Assay: FACS on CHO-K1 hIL-2R αβγ 2D6 cells

UniProt P01589, sequence (P01589 22-272 limits assumed, chain 1 of 3): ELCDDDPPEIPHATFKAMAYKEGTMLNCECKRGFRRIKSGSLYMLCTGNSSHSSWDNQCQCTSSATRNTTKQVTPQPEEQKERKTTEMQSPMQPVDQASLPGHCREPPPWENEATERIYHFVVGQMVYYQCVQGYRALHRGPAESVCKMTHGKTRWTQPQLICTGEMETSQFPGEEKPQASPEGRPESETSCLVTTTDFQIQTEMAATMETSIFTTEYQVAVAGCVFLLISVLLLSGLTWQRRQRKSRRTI
UniProt P01589, sequence (chain, as listed by the source limits assumed, chain 2 of 3): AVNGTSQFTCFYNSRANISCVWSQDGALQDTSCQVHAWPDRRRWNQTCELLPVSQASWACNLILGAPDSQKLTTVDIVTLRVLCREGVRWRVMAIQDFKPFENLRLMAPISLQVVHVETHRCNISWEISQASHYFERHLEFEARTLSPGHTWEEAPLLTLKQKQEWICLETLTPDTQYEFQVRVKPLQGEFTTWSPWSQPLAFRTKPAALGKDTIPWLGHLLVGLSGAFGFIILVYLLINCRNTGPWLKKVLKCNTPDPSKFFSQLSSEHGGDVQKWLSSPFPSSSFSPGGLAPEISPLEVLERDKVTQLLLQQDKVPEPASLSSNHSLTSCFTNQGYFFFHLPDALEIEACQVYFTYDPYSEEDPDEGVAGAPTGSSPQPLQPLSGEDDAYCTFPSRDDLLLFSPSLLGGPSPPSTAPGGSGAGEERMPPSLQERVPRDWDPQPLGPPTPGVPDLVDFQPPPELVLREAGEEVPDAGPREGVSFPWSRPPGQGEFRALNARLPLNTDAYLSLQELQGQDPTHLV
UniProt P01589, sequence (chain, as listed by the source limits assumed, chain 3 of 3): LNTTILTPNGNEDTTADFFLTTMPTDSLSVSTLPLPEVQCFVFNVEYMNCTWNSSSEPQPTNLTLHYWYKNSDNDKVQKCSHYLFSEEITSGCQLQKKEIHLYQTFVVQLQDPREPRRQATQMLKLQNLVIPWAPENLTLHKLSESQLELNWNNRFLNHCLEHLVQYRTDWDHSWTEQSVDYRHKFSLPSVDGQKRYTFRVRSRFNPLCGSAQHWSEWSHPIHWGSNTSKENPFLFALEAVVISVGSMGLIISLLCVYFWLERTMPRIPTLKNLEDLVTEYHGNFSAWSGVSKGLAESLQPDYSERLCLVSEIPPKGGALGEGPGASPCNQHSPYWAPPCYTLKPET

MFI at 0.0003 nM: 146 MFI
MFI at 0.0017 nM: 120 MFI and 140 MFI
MFI at 0.0085 nM: 119 MFI and 145 MFI
MFI at 0.0427 nM: 274 MFI and 144 MFI
MFI at 0.2133 nM: 181 MFI and 139 MFI
MFI at 1.0667 nM: 157 MFI and 138 MFI
MFI at 5.3333 nM: 124 MFI and 136 MFI
MFI at 26.667 nM: 118 MFI and 187 MFI
Substance: Human IgG control (antibody)
